Experimental findings from the DeepSol protein solubility set are described below.

This data set is described as follows: soluble on expression in E. coli; label from the status in PepcDB or PDB records.
In the case of “MSLPQFSVDLCLFDLDGTIVSTTTAAESAWKKLCRQHGVDPVELFKHSHGARSQEMMKKFFPKLDNTDNKGVLALEKDMADNYLDTVSLIPGAENLLLSLDVDTETQKKLPERKWAIVTSGSPYLAFSWFETILKNVGKPKVFITGFDVKNGKPDPEGYSRARDLLRQDLQLTGKQDLKYVVFEDAPVGIKAGKAMGAITVGITSSYDKSVLFDAGADYVVCDLTQVSVVKNNENGIVIQVNNPLTRDEGHHHHHH”, the “soluble on expression in E. coli” value was “soluble”.

Consider “MSLPVKNLRHLPKAHLHLHLEGAMRPATLTEFCERYKIKRPSDTRGKQFSNFAAFNEVYRAASDSIRTRQDLARVIQEVAEDAAKDGATWIEPAFDADRYTVLRADKSLRLFETPYEGWLFALKAARNASEKTGVGISFISAIDRTRPIDQANERAKLTTNLIASQKHQITAKNINGGEPYAGIIGLGLHGNEEGYPPEIFAEAFQIVTKKTEALSIPHAGEIAPTPGKGPESVEKAIDILSASRIQHGVLAIQDEVLIEKIKEKNICLDVCPSSNIQLSVFPNIQAHPLPLLIESGVSCSLGSDDPLLFGPSLLDEFELCREQMRLSDNTLAQLARNSFKYSGAPKKIVEQGLRDIDTWLNEGHHHHHH”, for which the “soluble on expression in E. coli” value is “soluble”.

Regarding “MSLQDSLFQTETGFQPLAARMRPTSLEGYVGQAHLVGPGKPLRRAVEQGQLHSMILWGPPGVGKTTFARLLANVGDLSFETISAVLSGVKEIREVVERARNRKQSQGRDTLLFVDEVHRFNKSQQDAFLPHIEDGTFIFVGATTENPSFELNSALLSRTRVYVLKNLEAADIRRLLDSALESEQGFAGQLRVEESVLATMAEASGGDARRALNILEVAADLAEPDDDGNNRVTAQTLEQVLQTSLRRFDKGGDVFYDQISALHKSVRGSNPDGSLYWLCRMLDGGCDPLYVARRLVRIASEDIGNADPRALQITLQAWDAQERLGSPEGELALAQAVTYLALAPKSNAVYKAYNQCIADIRSDPDYEVPVHLRNAPTKLLKSMGHGEEYRYAHDEPDAYAAGEAYLPEAIYQRRYYQPVQRGLEIKLAEKRERLDSLDANSPKKREGHHHHHH”, the “soluble on expression in E. coli” value is given as “soluble”.

With “MSLQICQGNGEFVHLLENSKGSPESFASAYSQSMRLTNGEFLCYHISTDYKSISFYNFKNASDGRTIIIHLPAKLMHEHHTLVVEEQEGVIVVDVILESSAFLTMRLPLEYIFGIENVLDDNWLSMQSPYDFTVRRPHLLHKVSQDFFVVFLEDGGLLGLRQHNENYLEPLLFNDYSYIQTLTSMFSRKKKQPADRAVACLVIHDKYLVVLTRLCHLKIWDLGSFHLVQEYNLTENFNGTLETIEYESNGNYISTLNDVIVIYLPIGNGVFKFGRLSFTNDGERKPTFNMFSSIDANMKKSTIWSFVDMKLTDPLELNFTSTTFNLIILWKSGSNSKLQILNIKDSSFSDFEWIEASNKSLQNFQTEEISALIQNYDFDKALYKLKSHYSDMTFKEADSLLLANNIVYSENNETQQQQYLANLDTLLRDINNNHSEIASFTIYKNDMILVNTHNLYNHGFYKINSSLENIYFNLSEITEGHHHHHH”, the “soluble on expression in E. coli” value is “soluble”.

“MSLQIVFPTPNQVEMQTGNLILGKKVSMYAEDTTAFYLNLFREEVLSHTPIKWQKKESKADICWITDSSLPPEGYRIKIHPQQMVISASDKGGFTYAVQTLRQWVAGSAGSITFACASVTDYPRTQWRCFLLDSGRQFQKITTIRKYIDMASLLKMNYFHWHLTEGLGWRIEIKQYPHLTRTGGSVGKGEEQQGFYTQEEIRDIIEYARQRNITIVPEIDMPGHAEAALSAYPELGCFGLPVEIPQSGFTQNIFCAGKDGTLRFLKNVLDEVCALFPSPYIHLGGDEAPKGNWDQCPDCRKRITTEGLKDSHDLQLWFSAQMANYLKSKGRKAIFWGDVVYHDGYPLPDNTVIQWWNYRGHKDLALRNAVKHHYPVICSSNYYTYLNFPVTPWKGYTEARTFDLKDVYLNNPSDKAISEKNPLILGMSCALWTDDGVTERMIDRRLFPRILALSEQMWHEGEALDFDRFYRNILHRKAWFEEAGFEFGPALKEDVTKDYKWDEGHHHHHH”: the “soluble on expression in E. coli” value is given as “soluble”.

For the sequence “MSLQKLAVFDFDSTLVNAETIESLARAWGVFDEVKTITLKAMNGETDFHKSLILRVSKLKNMPLKLAKEVCESLPLFEGALELVSALKEKNYKVVCFSGGFDLATNHYRDLLHLDAAFSNTLIVENDALNGLVTGHMMFSHSKGEMLLVLQRLLNISKTNTLVVGDGANDLSMFKHAHIKIAFNAKEVLKQHATHCINEPDLALIKPLIEGHHHHHH”, the “soluble on expression in E. coli” value is on record as “soluble”.

As for “MSLQMDQYLAQPLMIQEAQLVTIASGTTLSRELAQLTEQAWIQDSFVAEWVRRFHPELSKIKAGTYKLQPDMSLEQALALLVSGKEHQFSITFVEGSRFQEWRDILASNENITQQLTGLTEIDIAKALGIEHEKLEGLFLAETYHFTKGTSDVEILKRANQKLEKFLQVTWEHRQEGLPIQTPYEALILASIIEKETSIAEERERIAAVFINRLNKRMRLQTDPTVIYGMGETYDGNIRKKDLRARTPYNTYVINGLPPTPIAMPGEASIYAALNPEQSDYLYFVASGEGGHNFSKTLADHNRAVRAYLKKLRTKQEGHHHHHH”, the “soluble on expression in E. coli” value was “soluble”.

Take “MSLQQGDRVPAGLTLTNQAGESFRIGDYRGQTLVLTFIYTRCPLPTYCPLMSKQFAALQPQLRERYGEEAQLLSISFDPAYDTPQVLREYASKYTDRLDTWTFATGDSSQVERATGLFGVHAQKTGSEEITHNLTTALIGSEGHVRRLWRGNDWTPEDVRQAVAQVAEASEGHHHHHH”: the “soluble on expression in E. coli” value is on record as “soluble”.

Consider “MSLQRLNVEFRSEGVALRGWLYLPEARAERPAIVMTHGFSGVKEQYLDRYAEVFAAAGFVVLLYDHPNFGDSDGEPRQEIDPVMQRRGYRDAITWLGAQARVDASRIGIWGTSYSGGHVLEVAALDRRVKCVVAQVPTVSGHASALRRTRAEQLPALLASFDADRQRRFEGLPPALLPAVAASPDEPCAMAGADAHRFFTDSAALAPNWCNRVTLRSAELARENEPGIHIGRISPTPLLMIVADRDLLTPTDLCLEAYQRALPPKRLLMLAGGHFTPYIEHFDATSQAAADWFVRHLGEGGEQPATVVEEGGSHHHHHH”, for which the “soluble on expression in E. coli” value is listed as “soluble”.

As for “MSLQTCVLHRLSLPLKFPMRTAHGHIREKQAILVQLVDADGIEGWSECVALAEPTYTEECTDTAWVMLVHHLVPRFARWLRAASQDQDVDPRTVCEALRDVRGNRMSVAAIEMAVWDWYAARTGQPLVGLLGGGRDRVEVSATLGMSESLDVLIQSVDAAVEQGFRRVKLKIAPGRDRAAIKAVRLRYPDLAIAADANGSYRPEDAPVLRQLDAYDLQFIEQPLPEDDWFDLAKLQASLRTPVCLDESVRSVRELKLTARLGAARVLNVKPGRLGGFGATLRALDVAGEAGMAAWVGGMYETGVGRVHGLIAAALPLMRYATDLGPSDRYFEQDVLKEPIAFVEPGVIQVPQCAGVADWVDRDAVRRFSTATWSVDLRTLEGHHHHHH”, the “soluble on expression in E. coli” value is listed as “soluble”.

“MSLRDISILLAEDESELRELLHEYLQLFFGRVYAATSGDQAYDIYKQKKPDIIITDISMPNLDGLEMISKIRESDKETKIIVMSAHSEQERLLLAIKLNLESYLIKPIKTEALKTILLDIVKHLREKSRRTYVTENIYWEHETNTLWGNSKEIKLRKMESMLLKLLFSRPNEIFSTKEIFDYLHETKNDKEFSVHAVTSLMKRLRAKLPNEVIHNIYGSGYKIIPIEGHHHHHH”: the “soluble on expression in E. coli” value is given as “soluble”.

With “MSLRIVFKIGSNLLETDEGDIDLSFLSKLAEGIKKLHSFGDKVLIVSSGAVLSGAKKLGIKEKPKDLTLKQALASVGQSYLMHLYDTIFSNYGLKVGQVLLTKDVFSKEKEERFKNAKSTLEKLLELGVVPVINENDAVAVEELVFGDNDFLAVYVSFMVNADLLVIFSSAGGLKDDKDRIIPVVEDIEKVFKYVRGTGTSFGTGGMRSKLEATRLATTLNIPVIITSKEENILDLRNLKTKGTLFKPSKRKLRNALKVIATLEEPKGIIVVDRGAQEALKAGKSLLPAGVVSVQGNFKRGDVVSIQNEEGLIIGKGKVNFSSEEIEKIKGLKTSEVRKLLNTTKDEVIHRDNMVIFLEGHHHHHH”, the “soluble on expression in E. coli” value is recorded as “not soluble”.

As to “MSLRKFSLIMATYGRKDEVGCFLESLMNSNYPMDKVEVIIVDQNKEIDLEPIISKYKEKIKVVHIKSNERGLALNRNKGLEIATGDIIAFPDDDCEYLVDTLNIVNNYFENEHCDLLMGRIVERNGEDSLREWPKEKIEINKNNFYTKCSSVTMFLDSKKCFVKFNDQLGAGKYFGACEDADLIYKNCKKGLKIIYNPELQIYHPHYDSNSNMDDKKIYSYGLGFGAMVKSNFDFSMLILFIKAEGYHFLKSLIYLITFKTTKSKRSWLAFKSRIKGFFEYKNEGHHHHHH”, the “soluble on expression in E. coli” value is “soluble”.
